The results in this text go back to patent publication US20180155451A1 (published 2018).

Substitutions are numbered along the chain they refer to.

Experiment [1] concerns the target T1, FcγRIa extracellular domain with C-terminal His tag (human, UniProt P12314 16-292).
T1 construct: extracellular domain; also called FcgRI; FcgRIa; not shown: His tag at the C terminus
Description: SPR (Biacore), antibody captured on chip, soluble FcgR as analyte; experiment 1. In general terms: In SPR one partner is held on a chip, and binding of the other changes the refractive index at the surface.

Experiment [2] deals with T2, FcγRIIa R type extracellular domain with C-terminal His tag (human, UniProt P12318 34-217).
T2 construct: extracellular domain; also called FcgRIIa R; FcgRIIaR; not shown: His tag at the C terminus
T2 sequence (looked up): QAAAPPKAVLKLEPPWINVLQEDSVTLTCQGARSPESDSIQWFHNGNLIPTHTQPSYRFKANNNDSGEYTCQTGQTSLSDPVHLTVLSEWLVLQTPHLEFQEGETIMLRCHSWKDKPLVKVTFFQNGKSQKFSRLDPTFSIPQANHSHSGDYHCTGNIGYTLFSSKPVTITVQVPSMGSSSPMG
The experiment is described as above.

For experiment [3], the target named is T3, FcγRIIa H type extracellular domain with C-terminal His tag (human, UniProt P12318 34-217).
T3 construct: extracellular domain; also called FcgRIIa H; FcgRIIaH; not shown: His tag at the C terminus
T3 sequence (looked up): T2 sequence (looked up) with R134H
The description is as above.

The target of experiment [4] is T4, FcγRIIb extracellular domain with C-terminal His tag (human, UniProt P31994 43-217).
T4 construct: extracellular domain; also called FcgRIIb; 2b; not shown: His tag at the C terminus
T4 sequence (looked up): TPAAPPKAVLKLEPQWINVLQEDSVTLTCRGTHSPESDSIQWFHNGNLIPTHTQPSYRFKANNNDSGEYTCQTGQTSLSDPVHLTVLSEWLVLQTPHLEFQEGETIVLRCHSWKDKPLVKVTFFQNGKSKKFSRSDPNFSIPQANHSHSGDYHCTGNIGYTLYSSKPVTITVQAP
The description is as above.

In experiment [5] the target is T5, FcγRIIIa F type extracellular domain with C-terminal His tag (human, UniProt P08637 17-208).
T5 construct: extracellular domain; also called FcgRIIIa F; FcgRIIIaF; not shown: His tag at the C terminus
Described as above.

Experiment [6] addresses T6, FcγRIIIa V type extracellular domain with C-terminal His tag (human, UniProt P08637 17-208).
T6 construct: extracellular domain; also called FcgRIIIa V; FcgRIIIaV; not shown: His tag at the C terminus
Described as above.

In experiment [7] the target is T1, FcγRIa extracellular domain with …. Description: SPR (Biacore), antibody captured on chip, soluble FcgR as analyte; experiment 2. The procedure:
(§1) Antibodies of interest were analyzed for the interaction to FcgR according to the method described in Reference Example 8.
(§2) Analysis of interaction between obj ective antibody and the FcγR was carried out using Biacore T100 (GE Healthcare), Biacore T200, Biacore A100, and Biacore 4000. HBS-EP+ (GE Healthcare) was used as the running buffer, and the measurement temperature was set to 25° C. Chips produced by immobilizing the antigen peptide by the amine coupling method to a Series S sensor Chip CM5 (GE Healthcare), chips produced by allowing preliminarily biotinylated antigen peptides to interact with and immobilize onto a Series S Sensor Chip SA (certified) (GE Healthcare), chips produced by immobilizing Protein L (ACTIGEN, BioVision) to Series S Sencor Chip CM5 (GE Healthcare), or chips produced by immobilizing Protein A/G (Thermo Scientific) to Series S Sencor Chip CM5 (GE Healthcare) were used. Antibodies of interest were captured onto these chips, and allowed to interact to each FcγR diluted with running buffer. To regenerate and repeatedly use the chip, the antibodies captured onto the chip were washed off by reacting 10 mM glycine-HCl, pH 1.5.

The target in experiment [8] is T2, FcγRIIa R type extracellular domain …. The description is as above. The procedure:
as §1, §2

Experiment [9] has as its target T3, FcγRIIa H type extracellular domain …. The description is as above. How it is done: as §1, §2
Experiment [10] concerns the target T4, FcγRIIb extracellular domain with …. The description is as above. How it is done: as §1, §2
For experiment [11], the target named is T5, FcγRIIIa F type extracellular domain …. The experiment is described as above. The procedure:
as §1, §2

In experiment [12] the target is T6, FcγRIIIa V type extracellular domain …. The description is as above. How it is done:
as §1, §2

Experiment [13] addresses T1, FcγRIa extracellular domain with …. As to the kind of experiment: SPR (Biacore), antibody captured on chip, soluble FcgR as analyte; experiment 3. The procedure:
as §1, §2

In experiment [14] the target is T2, FcγRIIa R type extracellular domain …. The description is as above. The procedure:
as §1, §2

Experiment [15] deals with T3, FcγRIIa H type extracellular domain …. The experiment is described as above. How it is done: as §1, §2
Experiment [16] deals with T4, FcγRIIb extracellular domain with …. Described as above. How it is done:
as §1, §2

Experiment [17] deals with T5, FcγRIIIa F type extracellular domain …. The experiment is described as above. How it is done:
as §1, §2

For experiment [18], the target named is T6, FcγRIIIa V type extracellular domain …. The experiment is described as above. How it is done: as §1, §2
In experiment [19] the target is T7, Protein A (rProtein A Sepharose Fast Flow) (UniProt P38507 37-327).
T7 construct: Bought chromatography resin
Description: Protein A affinity chromatography (rProtein A Sepharose Fast Flow); the species is 3.2% of the Protein G-purified control but is not found in the pH 3.6 or the pH 2.7 elution fraction (cation exchange analysis). The procedure:
(§3) CM filtered through ϕ0.22-μm filter was loaded onto rProtein A Sepharose Fast Flow column (GE Healthcare) equilibrated with D-PBS. Washes 1 and 2 and Elutions 1 and 2 shown in Table 76 were carried out (Elution 1 alone was performed for Q407-z106/J300-z107/L210-k). […] The quantity of CM to be loaded was adjusted in a way that the quantity of the loaded antibody is 20 mg/ml resine. Fractions eluted under each condition were collected and the components contained in each elution fraction were identified by cation exchange chromatography analysis. […] Samples purified by batchwise elution were used as controls.
(§4) The values represent the area of elution peak expressed in percentage.

The target in experiment [20] is T7, Protein A (rProtein A Sepharose Fast …). Description: Protein A affinity chromatography (rProtein A Sepharose Fast Flow); the species is 5.8% of the Protein G-purified control but is not found in the pH 3.6 elution fraction (cation exchange analysis). The procedure:
as §3, §4

T6 sequence (P08637 17-208 F176V): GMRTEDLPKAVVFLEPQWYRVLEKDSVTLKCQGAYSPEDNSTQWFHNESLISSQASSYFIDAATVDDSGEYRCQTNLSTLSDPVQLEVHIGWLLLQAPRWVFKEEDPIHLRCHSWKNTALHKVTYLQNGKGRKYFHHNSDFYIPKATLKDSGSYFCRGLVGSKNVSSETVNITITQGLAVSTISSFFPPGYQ
T5 sequence (P08637 17-208): as the sequence (P08637 17-208 F176V) above, with V160F counted along it
T1 sequence (P12314 16-292): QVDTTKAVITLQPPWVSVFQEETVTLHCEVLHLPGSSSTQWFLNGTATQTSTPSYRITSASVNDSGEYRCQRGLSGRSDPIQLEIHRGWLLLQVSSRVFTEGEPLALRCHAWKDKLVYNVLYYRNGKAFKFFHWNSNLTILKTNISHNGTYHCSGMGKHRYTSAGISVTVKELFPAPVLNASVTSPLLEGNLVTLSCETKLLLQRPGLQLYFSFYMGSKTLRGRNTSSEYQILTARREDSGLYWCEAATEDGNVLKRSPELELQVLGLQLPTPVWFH

B1: H240-AK072/H240-BH076/L73-k0 (antibody, human IgG1, kappa)
heavy 1: QDQLVQSGAEVKKPGASVKVSCKASGFNIKDTYIQWVRQAPGQGLEWMGRIDPLRKQTKYREKFEGRVTITADTSTNTAYMELSSLRSEDTAVYYCVRSGREFDYWGQGTLVTVSSASTKGPSVFPLAPSSKSTSGGTAALGCLVKDYFPEPVTVSWNSGALTSGVHTFPAVLQSSGLYSLSSVVTVPSSSLGTQTYICNVNHKPSNTKVDKKVEPKSCDKTHTCPPCPAPEYYWGPSVFLFPPKPKDTLMISRTPEVTCVVVDVSDEEPEVKFNWYVDGVEVHNAKTKPREEQYNATYRVVSVLTVLHQDWLNGKEYKCKVSNKALPAPIEKTISKAKGQPREPQVYTLPPSRKEMTKNQVSLTCLVKGFYPSDIAVEWESNGQPENNYKTTPPVLDSDGSFFLYSKLTVDKSRWQQGNVFSCSVMHEALHNRYTQKSLSLSP
heavy 2: QDQLVQSGAEVKKPGASVKVSCKASGFNIKDTYIQWVRQAPGQGLEWMGRIDPLRKQTKYREKFEGRVTITADTSTNTAYMELSSLRSEDTAVYYCVRSGREFDYWGQGTLVTVSSASTKGPSVFPLAPSSKSTSGGTAALGCLVKDYFPEPVTVSWNSGALTSGVHTFPAVLQSSGLYSLSSVVTVPSSSLGTQTYICNVNHKPSNTKVDKKVEPKSCDKTHTCPPCPAPELLGGPSVFLFPPKPKDTLMISRTPEVTCVVVDVSHEEPEVKFNWYVDGVEVHNAKTKPREEQYNSTYRVVSVLTVLHQDWLNGKEYKCKVSNDALPMPIEETISKAKGQPREPQVYTLPPSREEMTKNQVSLTCLVKGFYPSDIAVEWESNGQPENNYKTTPPVLDSDGSFFLYSKLTVDKSRWQQGNVFSCSVMHEALHNHYTQESLSLSP
light: DIQMTQSPSSLSASVGDRVTITCRASQDIHKYIAWYQQKPGQAPRLLIQYTSTLQPGVPSRFSGSGSGTDYTFTISSLQPEDIATYYCLQYEQLRTFGGGTKVEIKRTVAAPSVFIFPPSDEQLKSGTASVVCLLNNFYPREAKVQWKVDNALQSGNSQESVTEQDSKDSTYSLSSTLTLSKADYEKHKVYACEVTHQGLSSPVTKSFNRGEC
notes: Heterodimerized anti-epiregulin (EREG) IgG1 antibody with two different H chains
As a reminder, the Kd is the concentration at which binding is half-saturated. On to B1, for which the Kd in [1] is 0.11 nM; in [2] it was 240 nM; in experiment [3], 72 nM; in [4], 1300 nM; in experiment [5] it was 2.9 nM; in [6], 0.99 nM. Besides, the Kd in [7] came to 0.12 nM; in [8], 280 nM; in [9], 69 nM; in [10] it was 1500 nM; in experiment [11], 3.7 nM; in [12] it was 1.2 nM. Further, the Kd in experiment [13] stood at 0.11 nM; in experiment [14] it was 240 nM; in experiment [15], 79 nM; in [16], 1400 nM; in experiment [17], 3.7 nM; in experiment [18], 1.2 nM.

B2: J142-z73/L180-k (antibody, human IgG4 S228P, kappa)
heavy: QVQLVQSGSELKKPGASVKVSCKASGYTFTDNNMDWVRQAPGQGLEWMGDINTRSGGSIYNEEFQDRVTMTIDKSTGTAYMELSSLRSEDTAVYYCARRRSYGYYHDEWGEGTLVTVSSASTKGPSVFPLAPCSRSTSESTAALGCLVKDYFPEPVTVSWNSGALTSGVHTFPAVLQSSGLYSLSSVVTVPSSSLGTKTYTCNVDHKPSNTKVDKRVESKYGPPCPPCPAPEFLGGPSVFLFPPKPKDTLMISRTPEVTCVVVDVSQEDPEVQFNWYVDGVEVHNAKTKPREEQFNSTYRVVSVLTVLHQDWLNGKEYKCKVSNKGLPSSIEKTISKAKGQPREPQVYTLPPSQEEMTKNQVSLTCLVKGFYPSDIAVEWESNGQPENNYKTTPPVLDSDGSFFLYSRLTVDKSRWQEGNVFSCSVMHEALHNRFTQESLSLSP
light: DIQMTQSPSSLSASVGDRVTITCKASRNIERNLAWYQQKPGQAPELLIYSASRKESGVPDRFSGSRYGTDFTLTISSLQPEDLATYYCQQYYSPPLTFGGGTKVEIKRTVAAPSVFIFPPSDEQLKSGTASVVCLLNNFYPREAKVQWKVDNALQSGNSQESVTEQDSKDSTYSLSSTLTLSKADYEKHKVYACEVTHQGLSSPVTKSFNRGEC
notes: also called homomeric antibody against FX
For the molecule B2, the binding result in [19] is “no binding”.

B3: J300-z107/L210-k (antibody, human IgG4 S228P, kappa)
heavy: B2 heavy with T69I, I72V, G77D, Y95H, R100K, H106L, K198Q, F295Y, R408K, F435Y
light: B2 light with L83I, Y92S
notes: Homomeric by-product in the culture medium of cells that express Q407-z106/J300-z107/L210-k; The H chain gene was made by linking z107 downstream of J300; also called homomeric antibody against FX
For the molecule B3, in [20], the binding result is recorded as “no binding”.
